# PMC6451091, “NextPBM: a platform to study cell-specific transcription factor binding and cooperativity”
# Biological target: PU.1 (IVT) (UniProt P17947 1-270)
# Test: PBM; 20 mM HEPES pH 7.9, 100 mM NaCl, 1 mM DTT, 0.2 mg/mL BSA, 0.02% Triton X-100, 2% milk, 0.4 mg/mL salmon testes DNA, 1 h; temperature not stated
# Conditions: protein: ivt; blunt
# Summary of the method: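 Custom double-stranded DNA microarrays bearing 20-bp genomic sites and single-nucleotide variants (10 probes per site, 5 per orientation) were incubated for 1 h with full-length untagged PU.1 made by coupled human in vitro transcription/translation, in HEPES pH 7.9 with 100 mM NaCl, 2% milk and salmon testes DNA. Anti-PU.1 and a fluorescent secondary antibody detected the bound protein. Each binding value is a z-score from scanned fluorescence after linear-regression normalisation.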
row,Binder,binding signal
1,PBM_PU1_IRF8_v2_30 (dsDNA) DNA 1: GCCTAGCACATTTTAAGGAAGTGAAACCCGTGCTAGGTCTTGATTCGCTTGACGCTGCTG DNA 2: CAGCAGCGTCAAGCGAATCAAGACCTAGCACGGGTTTCACTTCCTTAAAATGTGCTAGGC,5.72 z-score
2,PBM_PU1_IRF8_v2_1 (dsDNA) DNA 1: GCCTAGCACTAAAAGAGGAAGTGGCAGATGTGCTAGGTCTTGATTCGCTTGACGCTGCTG DNA 2: CAGCAGCGTCAAGCGAATCAAGACCTAGCACATCTGCCACTTCCTCTTTTAGTGCTAGGC,8.16 z-score
3,PBM_PU1_IRF8_v2_6 (dsDNA) DNA 1: GCCTAGCACGAAGAGAGGAAGTGAAATTAGTGCTAGGTCTTGATTCGCTTGACGCTGCTG DNA 2: CAGCAGCGTCAAGCGAATCAAGACCTAGCACTAATTTCACTTCCTCTCTTCGTGCTAGGC,5.03 z-score
4,PBM_PU1_IRF8_v2_24 (dsDNA) DNA 1: GCCTAGCACATAAGGAGGAAGTGAGACAGGTGCTAGGTCTTGATTCGCTTGACGCTGCTG DNA 2: CAGCAGCGTCAAGCGAATCAAGACCTAGCACCTGTCTCACTTCCTCCTTATGTGCTAGGC,4.54 z-score
5,PBM_PU1_IRF8_v2_23 (dsDNA) DNA 1: GCCTAGCACCAAATGAGGAAGTGAGACTTGTGCTAGGTCTTGATTCGCTTGACGCTGCTG DNA 2: CAGCAGCGTCAAGCGAATCAAGACCTAGCACAAGTCTCACTTCCTCATTTGGTGCTAGGC,7.69 z-score
6,PBM_PU1_IRF8_v2_22 (dsDNA) DNA 1: GCCTAGCACGAAAAGAGGAAGTGGAAACAGTGCTAGGTCTTGATTCGCTTGACGCTGCTG DNA 2: CAGCAGCGTCAAGCGAATCAAGACCTAGCACTGTTTCCACTTCCTCTTTTCGTGCTAGGC,8.54 z-score
7,PBM_PU1_IRF8_v2_5 (dsDNA) DNA 1: GCCTAGCACAAATAGAGGAAGTCAGAGAGGTGCTAGGTCTTGATTCGCTTGACGCTGCTG DNA 2: CAGCAGCGTCAAGCGAATCAAGACCTAGCACCTCTCTGACTTCCTCTATTTGTGCTAGGC,6.21 z-score
8,PBM_PU1_IRF8_v2_13 (dsDNA) DNA 1: GCCTAGCACGAAAAGAGGAAGTCAGATTGGTGCTAGGTCTTGATTCGCTTGACGCTGCTG DNA 2: CAGCAGCGTCAAGCGAATCAAGACCTAGCACCAATCTGACTTCCTCTTTTCGTGCTAGGC,8.24 z-score
9,PBM_PU1_IRF8_v2_4 (dsDNA) DNA 1: GCCTAGCACGAAAACAGGAAGTGGACAACGTGCTAGGTCTTGATTCGCTTGACGCTGCTG DNA 2: CAGCAGCGTCAAGCGAATCAAGACCTAGCACGTTGTCCACTTCCTGTTTTCGTGCTAGGC,7.4 z-score
10,PBM_PU1_IRF8_v2_3 (dsDNA) DNA 1: GCCTAGCACATAAGGAGGAAGTGGCTGAAGTGCTAGGTCTTGATTCGCTTGACGCTGCTG DNA 2: CAGCAGCGTCAAGCGAATCAAGACCTAGCACTTCAGCCACTTCCTCCTTATGTGCTAGGC,5.13 z-score
11,PBM_PU1_IRF8_v2_2 (dsDNA) DNA 1: GCCTAGCACGAAAAGGGGAAGTGTATTCCGTGCTAGGTCTTGATTCGCTTGACGCTGCTG DNA 2: CAGCAGCGTCAAGCGAATCAAGACCTAGCACGGAATACACTTCCCCTTTTCGTGCTAGGC,7.7 z-score
12,PBM_PU1_IRF8_v2_16 (dsDNA) DNA 1: GCCTAGCACAATATAGGGAAGTGCTTAACGTGCTAGGTCTTGATTCGCTTGACGCTGCTG DNA 2: CAGCAGCGTCAAGCGAATCAAGACCTAGCACGTTAAGCACTTCCCTATATTGTGCTAGGC,5.82 z-score
